Results on 4 substances are retold here after patent publication US20090100532A1, “TRANSGENIC MICE EXPRESSING HYPERSENSITIVE NICOTINIC RECEPTORS” (CALIFORNIA INSTITUTE OF TECHNOLOGY, priority 2007, published 2009).

For one assay, the target named is α4-CFP (mouse) (UniProt O70174). The assay can be described thus: acceptor photobleaching FRET, N2a cells, untagged β2 coexpressed.
The target of assay [1] is CFP-labeled GluCl β subunit (UniProt Q17328). The assay can be described thus: acceptor photobleaching FRET, N2a cells; specificity control.
CFP-labeled GluCl β subunit, sequence (Q17328 23-434): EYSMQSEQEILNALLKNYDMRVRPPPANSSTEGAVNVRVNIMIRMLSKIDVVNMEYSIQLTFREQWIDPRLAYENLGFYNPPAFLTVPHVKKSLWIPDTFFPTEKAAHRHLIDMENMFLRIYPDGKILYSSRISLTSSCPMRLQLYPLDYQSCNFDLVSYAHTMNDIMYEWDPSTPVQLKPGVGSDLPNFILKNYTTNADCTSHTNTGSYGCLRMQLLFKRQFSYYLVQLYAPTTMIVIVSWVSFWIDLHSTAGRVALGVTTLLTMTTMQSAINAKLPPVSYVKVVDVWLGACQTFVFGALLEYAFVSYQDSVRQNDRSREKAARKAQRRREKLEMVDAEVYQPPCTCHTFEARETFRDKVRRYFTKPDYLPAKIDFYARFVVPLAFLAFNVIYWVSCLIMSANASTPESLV
A further assay concerns the target β2-CFP (mouse) (UniProt Q9ERK7). The assay can be described thus: acceptor photobleaching FRET, N2a cells, within the same α4β2 pentamer.

α4-CFP (mouse), sequence (O70174 31-629): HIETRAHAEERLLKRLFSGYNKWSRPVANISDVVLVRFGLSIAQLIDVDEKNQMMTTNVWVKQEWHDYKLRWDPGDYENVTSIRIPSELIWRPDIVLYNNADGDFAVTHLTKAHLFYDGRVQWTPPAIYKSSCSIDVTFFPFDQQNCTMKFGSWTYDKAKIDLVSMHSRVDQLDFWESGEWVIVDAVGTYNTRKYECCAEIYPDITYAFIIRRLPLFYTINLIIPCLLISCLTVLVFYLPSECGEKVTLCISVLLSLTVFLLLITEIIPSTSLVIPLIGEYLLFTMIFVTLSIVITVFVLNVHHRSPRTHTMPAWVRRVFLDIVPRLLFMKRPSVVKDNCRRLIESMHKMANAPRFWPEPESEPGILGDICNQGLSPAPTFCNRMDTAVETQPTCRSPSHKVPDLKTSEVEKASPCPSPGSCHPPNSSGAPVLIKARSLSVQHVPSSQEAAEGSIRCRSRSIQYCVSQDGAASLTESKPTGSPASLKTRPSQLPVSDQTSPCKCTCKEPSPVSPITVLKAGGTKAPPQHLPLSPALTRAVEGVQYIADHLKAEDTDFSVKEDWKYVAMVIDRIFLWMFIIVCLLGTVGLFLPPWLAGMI
α4-YFP, sequence (O70174 31-629): as above
β2-YFP, sequence (Q9ERK7 26-501): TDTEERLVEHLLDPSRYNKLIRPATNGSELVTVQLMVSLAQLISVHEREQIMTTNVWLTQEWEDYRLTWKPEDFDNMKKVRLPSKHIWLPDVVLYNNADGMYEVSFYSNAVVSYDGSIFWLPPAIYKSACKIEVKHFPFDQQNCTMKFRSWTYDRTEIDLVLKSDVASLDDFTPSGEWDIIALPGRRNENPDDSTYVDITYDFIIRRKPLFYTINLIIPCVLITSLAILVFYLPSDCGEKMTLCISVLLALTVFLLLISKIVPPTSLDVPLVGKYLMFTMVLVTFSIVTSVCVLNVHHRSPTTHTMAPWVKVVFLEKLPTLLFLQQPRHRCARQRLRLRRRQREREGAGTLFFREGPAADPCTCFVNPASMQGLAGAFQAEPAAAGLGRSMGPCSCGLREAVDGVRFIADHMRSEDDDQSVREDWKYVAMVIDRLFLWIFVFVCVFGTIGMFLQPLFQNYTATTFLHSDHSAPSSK
β2-CFP (mouse), sequence (Q9ERK7 26-501): as above

The substance “α4-YFP (from UniProt O70174 31-629) (receptor)” came in with an FRET E in the assay with α4-CFP (mouse) of 22.2%.
“α6-YFP^A405 (from UniProt Q9R0W9 31-405; Q9R0W9 406-494) (receptor)” showed an FRET E in assay [1] of 14%.
In the assay with β2-CFP (mouse), “β2-YFP (from UniProt Q9ERK7 26-501) (receptor)” gave an FRET E of 16.3%.
“β3-YFP^P379 (from UniProt Q8BMN3 31-379; Q8BMN3 380-464) (receptor)” displayed an FRET E in assay [1] of 6%.
